Reference: patent publication US7282483 (Amgen, dated 2007)

Biological target: T1, TNF-β (lymphotoxin) (UniProt P01374 35-205, limits assumed)
T1 sequence (looked up): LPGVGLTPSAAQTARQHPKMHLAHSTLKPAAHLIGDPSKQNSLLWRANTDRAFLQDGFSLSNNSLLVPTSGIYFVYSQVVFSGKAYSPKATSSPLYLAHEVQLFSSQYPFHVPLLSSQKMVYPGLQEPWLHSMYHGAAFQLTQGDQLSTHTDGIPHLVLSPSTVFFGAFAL
Test: preliminary tests, analogous to the competition binding test

B1: TNF-binding protein (TNF-BP), natural, purified from dialyzed urine of uraemia patients (receptor)
chain: DSVCPQGKYIHPQNNSICCTKCHKGTYLYNDCPGPGQDTDCRECESGSFTASENHLRHCLSCSKCRKEMGQVEISSCTVDRDTVCGCRKNQYRHYWSENLFQCFNCSLCLNGTVHLSCQEKQNTVCTCHAGFFLRENECVSCSNCKKSLECTKLCLPQIEN
modifications: glycoprotein; Asn-25 glycosylated (numbering of the TNF-BP cDNA sequence, Leu-1 = first residue after the signal peptide)
notes: Main form (about 80 %) starts at Asp-12; In the preliminary tests it was used as concentrated dialyzed urine or partly purified preparations
With B1 the “affinity for TNF-β relative to its affinity for TNF-α” value was ~0.02 ratio (affinity for TNF-β / affinity for TNF-α).
